Earlier results as cited in paper PMC5368065.

Key:
[1] = target: MLL1 MBM1-MBM2 (Homo sapiens) (UniProt Q03164)
MLL1 (Homo sapiens) = MLL1 (Homo sapiens) (UniProt Q03164)

Kd [1]: 10 nM | Kd (MLL1 (Homo sapiens)): 10 nM
Substance: Menin (from UniProt O00255)
